Paper PMC4756307

These sequences were tested against T1, CodY (6His-CodY) (Streptococcus suis serotype 2 (strain SC19?)) (UniProt A0A0H3MTH0) (assay: EMSA). Conditions: EMSA: 1 ug PCR product with 0-2200 ng CodY in binding buffer (Beyotime; composition, pH and salt not given), 30 min at 37 C, native PAGE, ethidium bromide ….
T1 sequence: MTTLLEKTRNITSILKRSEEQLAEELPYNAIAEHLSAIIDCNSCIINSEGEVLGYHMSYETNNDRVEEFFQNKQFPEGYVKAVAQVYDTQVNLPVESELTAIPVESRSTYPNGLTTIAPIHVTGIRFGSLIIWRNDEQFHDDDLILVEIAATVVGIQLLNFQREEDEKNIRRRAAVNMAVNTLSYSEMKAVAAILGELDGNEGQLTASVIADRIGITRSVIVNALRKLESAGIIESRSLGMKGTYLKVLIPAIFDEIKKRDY
With “AATACAAGCGACGATTCCCTTCGTTGCGATCGGGCTTAATCAAGCCTTGATCTTCATAGTAACGAATTTGACGAGCAGTTAAATCTGTCAACTTCATCACACTACCGATCGGAAAGATAGCTAAGGAACGACGAAACTCTTTTTCTCTCATAATGAACTCCTTTCTGCCTACCATTATAGGAGAATTTTTTTTTGAGGTCAATAGGTGATGTTATATTTTATAACATCATTTATCCTGAAAACGTTTTTTTATAACATTCACATCATAATTAACTAGAATCGCAATGAAAACTCC (double strand) [glnR promoter]” the binding was “binds”. “ATCTCGGTCTTTGGTTGTTTGGCTTTACAGCTCTATACTTTGTGGCAGCTTATCTGATTGCCCTCAATCCATCTCAAATCTTAAATAGTATCGGACGTATTTTAACCCCTGTTTTTGCGATTTTGATTGTGATTTTGGTGGTGCTTGGTATTGTTAAGTACGGATCAACAAGTCCGTTACCAGCTTCGGAAGCTTACTCAGCAGGACAGGCATTTGGTACAGGATTTATCGAGGGATACAATACACTCGACGCACTTGCTTCTATTGCTTTTAGTGTCGTAGCAGTAAATACCT (double strand) [bap2 promoter]” was tested, and the binding was “binds”. For “GGACGTATGCGCCTCTGCTTATGCCAGAAGTCATGAGGTAAATCTCCCTAAAAATTGGGTAGAAAAGCAGATTAAACTTCCACCAATCTATTGAAGATCGTGTGAAGAAGCAGGCTTTAGAAGCAACAAGCCCTGAGACTATTCGAAAGAAATCTAGGGCTATTTTTTCTAATCGGCTATCAGAAGTGAAGTAGCGATCTTTATTAGTGTTCTTTTACTACTTAAGGAAAACCAAGCTGCTCCCTCAAGACTTTATGGGAGCGATTTACAGTCATTT (double strand) [neuB (neu) promoter]”, the binding was “no binding”. For “TCTGTATTTATCATTGTAGTCCTATCTGCAACAGTAGAAAATTATATTGTAAATTTAAGTTTTGTATTTATGCCAATATGTTTTTGTTTATTAAATTCTATATCTACTATGGAATCAACTATTAACAAACAACTGCAAACATAAATTGGCAGGAATAGAGTTTTGAGTTGCTATTAATTTGGTAGAGCATATGTTCTATAGGTGGCAAGATAGAAGATAGTATTTTTTACATGATGATTTTTATGATAGCA (double strand) [cps2J promoter]”, the binding was “binds”.
